Earlier results on 1 substance are cited in patent US20260263353A1, “PROGRAMMABLE DRUG-DEVICE MICRONEEDLE SYSTEM FOR THE DELIVERY AND MONITORING OF DIABETES AND OBESITY MEDICATIONS” (ALJ Creative Works, LLC, priority 2023, published 2026).

For this data set the following is noted: once weekly dosing at clinically relevant doses; literature reference [26].

For Insulin ICODEC, the half-life result is listed as “about 196 hours”; the safety and tolerability result was “safe and well-tolerated”.
